Experimental findings from patent publication US20190177411 are described below.

The target of data set [1] is Flag-tagged T346A PDK1 mutant.
Data set [2] deals with Flag-tagged wild type (WT) PDK1 (not specifically T346-phosphorylated: from normoxic PC3 cells, or dephosphorylated before the kinase assay).
For data set [3], the target named is purified recombinant His-tagged PDK1 (Abcam).
In data set [4] the target is purified recombinant His-tagged PDK2 (Abcam), Q15119.
Data set [5] addresses purified recombinant His-tagged PDK3 (Abcam), Q15120.
For data set [6], the target named is purified recombinant His-tagged PDK4 (Abcam), Q16654.
purified recombinant His-tagged PDK4 (Abcam), Q16654, sequence (Q16654 10-411): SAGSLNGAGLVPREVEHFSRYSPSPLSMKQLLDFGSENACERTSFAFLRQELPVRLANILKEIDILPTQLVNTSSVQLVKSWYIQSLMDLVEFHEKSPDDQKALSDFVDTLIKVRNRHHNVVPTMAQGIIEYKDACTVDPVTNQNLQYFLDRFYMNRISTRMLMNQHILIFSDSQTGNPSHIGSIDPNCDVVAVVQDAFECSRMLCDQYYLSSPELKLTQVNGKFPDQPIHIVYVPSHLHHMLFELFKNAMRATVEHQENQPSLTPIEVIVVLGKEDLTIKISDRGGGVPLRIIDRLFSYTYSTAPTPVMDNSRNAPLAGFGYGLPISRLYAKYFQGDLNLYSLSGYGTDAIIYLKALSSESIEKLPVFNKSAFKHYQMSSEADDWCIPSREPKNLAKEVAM

purified recombinant His-tagged PDK1 (Abcam), sequence (chain, as listed by the source): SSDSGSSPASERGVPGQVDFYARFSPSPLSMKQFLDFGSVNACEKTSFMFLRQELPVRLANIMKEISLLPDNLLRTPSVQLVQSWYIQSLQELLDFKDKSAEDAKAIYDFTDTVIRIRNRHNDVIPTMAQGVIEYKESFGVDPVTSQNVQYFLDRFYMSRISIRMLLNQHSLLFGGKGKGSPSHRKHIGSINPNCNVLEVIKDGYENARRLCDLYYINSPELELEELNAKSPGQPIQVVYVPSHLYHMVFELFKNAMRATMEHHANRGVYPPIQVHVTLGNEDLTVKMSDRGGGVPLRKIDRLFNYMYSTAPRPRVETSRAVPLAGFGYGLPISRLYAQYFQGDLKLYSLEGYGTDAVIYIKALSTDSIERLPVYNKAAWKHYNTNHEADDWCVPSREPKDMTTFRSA
purified recombinant His-tagged PDK3 (Abcam), Q15120, sequence (Q15120 whole entry, looked up): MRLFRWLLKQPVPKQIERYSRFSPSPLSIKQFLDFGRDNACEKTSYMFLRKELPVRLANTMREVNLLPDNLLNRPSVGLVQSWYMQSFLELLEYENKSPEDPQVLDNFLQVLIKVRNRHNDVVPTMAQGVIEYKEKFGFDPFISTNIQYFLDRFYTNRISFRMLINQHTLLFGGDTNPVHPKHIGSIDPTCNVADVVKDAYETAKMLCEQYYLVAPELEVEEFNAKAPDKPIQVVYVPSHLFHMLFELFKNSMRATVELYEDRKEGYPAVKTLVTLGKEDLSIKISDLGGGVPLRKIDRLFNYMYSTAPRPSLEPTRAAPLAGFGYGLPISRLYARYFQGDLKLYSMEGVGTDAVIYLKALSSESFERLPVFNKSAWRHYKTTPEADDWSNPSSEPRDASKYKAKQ
Flag-tagged wild type (WT) PDK1 (not specifically T346-phosphorylated: from normoxic PC3 cells, or dephosphorylated before the kinase assay), sequence (chain, as listed by the source): as the sequence (chain, as listed by the source) above
Flag-tagged T346A PDK1 mutant, sequence (chain, as listed by the source T346A): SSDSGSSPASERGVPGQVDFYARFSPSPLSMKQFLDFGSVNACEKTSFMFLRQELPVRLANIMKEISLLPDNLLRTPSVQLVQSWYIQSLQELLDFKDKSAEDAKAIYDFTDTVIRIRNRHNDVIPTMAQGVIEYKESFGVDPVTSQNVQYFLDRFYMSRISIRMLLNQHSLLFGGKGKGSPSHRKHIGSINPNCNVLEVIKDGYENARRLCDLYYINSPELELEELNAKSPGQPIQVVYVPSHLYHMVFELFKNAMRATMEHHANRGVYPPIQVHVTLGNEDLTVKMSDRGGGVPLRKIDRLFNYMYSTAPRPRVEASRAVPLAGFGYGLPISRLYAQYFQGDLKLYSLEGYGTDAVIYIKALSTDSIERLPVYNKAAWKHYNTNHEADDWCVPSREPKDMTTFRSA

B1: kinase active Akt2 (SignalChem) (protein)
chain: MNEVSVIKEGWLHKRGEYIKTWRPRYFLLKSDGSFIGYKERPEAPDQTLPPLNNFSVAECQLMKTERPRPNTFVIRCLQWTTVIERTFHVDSPDEREEWMRAIQMVANSLKQRAPGEDPMDYKCGSPSDSSTTEEMEVAVSKARAKVTMNDFDYLKLLGKGTFGKVILVREKATGRYYAMKILRKEVIIAKDEVAHTVTESRVLQNTRHPFLTALKYAFQTHDRLCFVMEYANGGELFFHLSRERVFTEERARFYGAEIVSALEYLHSRDVVYRDIKLENLMLDKDGHIKITDFGLCKEGISDGATMKTFCGTPEYLAPEVLEDNDYGRAVDWWGLGVVMYEMMCGRLPFYNQDHERLFELILMEEIRFPRTLSPEAKSLLAGLLKKDPKQRLGGGPSDAKEVMEHRFFLSINWQDVVQKKLLPPFKPQVTSEVDTRYFDDEFTAQSITITPPDRYDSLGLLELDQRTHFPQFSYSASIRE
With B1, the “phosphorylation of Flag immune complexes in a kinase assay, Western blotting with Akt cons Ab” value in data set [1] was “but not a phosphorylation-defective Thr346→Ala (T346A) PDK1 mutant”; in data set [2], “active Akt2 phosphorylated wild type (WT) PDK1”. The “phosphorylation in a kinase assay, Western blotting with Akt cons Ab” value is “active Akt1 or Akt2 readily phosphorylated PDK1” in data set [3]; “related PDK2, PDK3 or PDK4 isoforms were unreactive” in data set [4]; “related PDK2, PDK3 or PDK4 isoforms were unreactive” in data set [5]; “related PDK2, PDK3 or PDK4 isoforms were unreactive” in data set [6]. In data set [3], the “phosphorylation site by LC-MS/MS of chymotrypsin digests after a kinase assay” value is recorded as “Thr346 (T346) was identified ... as the sole phospho-amino acid modified by Akt1 or Akt2, compared to control”.
